Results from patent publication US20040077535A1 (Takeda / Millennium, published 2004).

B1: human type ZAQ ligand mature peptide (type G, 86 amino acid residues) (ligand)
peptide: AVITGACERDVQCGAGTCCAISLWLRGLRMCTPLGREGEECHPGSHKVPFFRKRKHHTCPCLPNLLCSRFPDGRYRCSMDLKNINF
notes: also called human type ZAQ ligand peptide; ZAQL-1
B2: snake venom Mamba Intestinal Toxin 1 (MIT1) (ligand)
peptide: AVITGACERDLQCGKGTCCAVSLWIKSVRVCTPVGTSGEDCHPASHKIPFSGQRMHHTCPCAPNLACVQTSPKKFKCLSK
notes: also called snake venom MIT1; non-labeled MIT1

How the values were obtained:
[1] = target: T1, G protein-coupled receptor protein ZAQ (human, UniProt Q8TCW9 1-393); assay: cell-based or functional assay
T1 sequence (Q8TCW9 whole entry): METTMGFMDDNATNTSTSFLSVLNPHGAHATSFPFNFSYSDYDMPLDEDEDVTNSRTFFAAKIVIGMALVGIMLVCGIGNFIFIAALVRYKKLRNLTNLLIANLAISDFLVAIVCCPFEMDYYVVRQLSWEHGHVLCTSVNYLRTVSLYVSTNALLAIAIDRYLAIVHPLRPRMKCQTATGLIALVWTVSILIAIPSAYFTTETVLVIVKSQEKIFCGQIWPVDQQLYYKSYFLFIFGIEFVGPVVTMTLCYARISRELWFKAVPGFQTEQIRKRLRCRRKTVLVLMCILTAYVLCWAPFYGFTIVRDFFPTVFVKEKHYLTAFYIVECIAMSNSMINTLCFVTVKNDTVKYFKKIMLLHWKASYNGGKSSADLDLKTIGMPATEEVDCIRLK

[2] = target: T1, G protein-coupled receptor protein ZAQ; assay: displacement of 125I-MIT1 from ZAQC-B1 CHO cell membrane fraction, glass fiber filter binding assay
[3] = target: T2, human type I5E receptor protein (human, UniProt Q8NFJ6 1-384); assay: displacement of 125I-MIT1 from I5E-4 CHO cell membrane fraction, glass fiber filter binding assay
T2 construct: Stably expressed in CHO/dhfr- cells (clone I5E-4); Whole cells in the FLIPR assays; also called ISE receptor; I5E-4 cell
T2 sequence (Q8NFJ6 whole entry): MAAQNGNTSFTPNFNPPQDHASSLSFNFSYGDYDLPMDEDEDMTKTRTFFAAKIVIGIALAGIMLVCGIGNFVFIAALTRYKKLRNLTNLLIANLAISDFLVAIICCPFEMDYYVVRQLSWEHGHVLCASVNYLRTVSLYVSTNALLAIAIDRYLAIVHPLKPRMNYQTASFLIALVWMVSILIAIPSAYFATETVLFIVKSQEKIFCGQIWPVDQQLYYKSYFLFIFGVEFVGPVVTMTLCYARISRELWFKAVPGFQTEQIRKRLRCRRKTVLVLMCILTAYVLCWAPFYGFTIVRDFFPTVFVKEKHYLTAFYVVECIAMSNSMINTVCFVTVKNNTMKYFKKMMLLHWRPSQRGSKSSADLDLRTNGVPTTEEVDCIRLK

Binder | increase of the intracellular calcium ion concentration (FLIPR), EC50 [1] | IC50 [2] | IC50 [3]
B1 | 96 pM | 35 pM | 93 pM
B2 | – | 38 pM | 32 pM
